Experimental data taken from the DeepSol protein solubility set.

Assay: soluble on expression in E. coli; label from the status in PepcDB or PDB records

Question: For “MGSDKIHHHHHHMKVLVPATTTNLGAGFDVFGLALDLFNEVEFSFDTKETTIESTGKYASDLKDHNLFFEVLRFFERKTGYRVPPVRIKQTCNIPVSSGLGSSAAVIVAALHIANEGTGRNLSREDLMKLAVELEGHPDNVVPAFTGGLVVCYQNGSHLDFEKFEIDLSLTFLVPNFPVCTNEMRKILPEKVPFEDAVFNIKNSCQFLAKIAAGKIKEALKYVGDRLHQNYRINGNKKMKEFVEAILSKNPEYWFVSGSGPSVCSNINDFEGIPYLKDVLKLRVNNRGMIVSE”, which “soluble on expression in E. coli” value is on record?
Answer: Its value is “not soluble”.

Question: For “MGSDKIHHHHHHMKVLVVDNSRWWGGAEKNLQTLVDNRSNAIEFNVLSDYPMSHNITYRDFCGVRYRFDNSYFIRYLDNKYQIKGMRIFRLIYKSLYLIPSLVRYNPDIVHFNLYRSSDILDIIVCKILRKKVVLHIRSLANRIKIAPLTIKLADAVICVSKSVKQGFSFTGNKYHVIYNGIDSKYYHLVPQDQAREKLGINLTSFVIGSIGNLEREKGHDVAVKALKKIIDDGNVVVALIIVGKDSTINESETKRILTLSKDLGVQGHIKIFSISHKDIHYVYSACDIVLTLCIDGEAFGMIPLEAAMHNRPVIATNVGACRETIIHNQTGLLCEPNSPVALVQAIDTIMKDKKYCDQLTESARNRVLHKYSADAYRDSVYKIYITITKENKRKL”, which “soluble on expression in E. coli” value is on record?
Answer: Its value is “not soluble”.

Question: With “MGSDKIHHHHHHMKVQFLGAAQTVTGSCYMIEANGVRFAIDCGMHQGNTEIEKRNDDTEIYRPSDIAFFLVTHAHIDHTGLLPAMTRNGFTGPIYCTEPTADLLGIMLQDSAHIQEMEAEWQSRKLSRNGRIKKVEPLYTTEDATRAAEMLRPVDYGNSFEPSPGIRVTYKDAGHILGSAFLELEVTENGRPTRLVFSGDLGRPDALIVNDPQKAAPADYLFLESTYGDRDHKDPRFSRDELAEAIAYSYGNGEKVIIPAFAVERTQEVLYTLYLLHKEGRLPADMPVFVDSPLAIRATEIFRKHPKYYDDNMKKLVDSGEDPLALPNLKYTLNTQDSQALNVRSGPAVIISASGMCNAGRIKHHLRHNLWRPGASIVFVGYQGVGTPGRKIVDGNATVRLFNEDIAVKAKVFTIGSFSAHAGQSQILEWVSAFAHPQMEVFLVHGEEKAQTTLAGLLRERFNLPVSIPGYLEEVTLKPGRESLHQTDEARAHPDVDWEFLLAETEGKVAQLRKRLAGVEKRPWVEQTDIRERLVEINGELLHFLSQL” as the sequence, how does the “soluble on expression in E. coli” value read?
Answer: Its value is “not soluble”.

Question: For “MGSDKIHHHHHHMKVQRIQAIENLIHEKGSASLDDLCKQFNVSKNTIRRDIAKLLQKNTIKKVYGGVVSIYNNPEEIRPFENRDTENHAEKQLIGKAAADFIEENDLIFIDSGTTTSCLAAALPTDKEITIITNSLDVINFASEMDNVKLIVIGSTFKTSTKSFVGVENWGFFEKYNITKAFMAATALSTTHGVMNSDILEYEIKRHMMEKAREKFLLVDHTKVDKSALLTYGELAEFDWLVTSKEMAGGCLGYCADVGVLVRLV”, which “soluble on expression in E. coli” value is on record?
Answer: Its value is “not soluble”.

Question: For “MGSDKIHHHHHHMKVVIISGGNSPSYTLIKKELRESEYLIAADSGANTLFKYDVFPDYIIGDLDSIKTVALNYYKNRKVSILQYPPEKDYTDTEIAVNKAIDLGATEIVLLGCTGSRIDHLFGNIGMLLKCLKLGVSCVIKDDNNTIFLTETSIKIRGSLGKTFSIIPYSEEISDLTIIGAKYPLNNYKMKIGSAIGISNVFEEEEVKVQFNSGKILIVYPTD”, which “soluble on expression in E. coli” value is on record?
Answer: The value was “not soluble”.

Question: Which “soluble on expression in E. coli” value does the source give for “MGSDKIHHHHHHMKVVKFGGSSLASGAQLDKVFHIVTSDPARKAVVVSAPGKHYAEDTKVTDLLIACAEQYLATGSAPELAEAVVERYALIANELQLGQSIIEKIRDDLFTLLEGDKSNPEQYLDAVKASGEDNNAKLIAAYFRYKGVKAEYVNPKDAGLFVTNEPGNAQVLPESYQNLYRLRERDGLIIFPGFFGFSKDGDVITFSRSGSDITGSILANGLQADLYENFTDVDAVYSVNPSFVENPKEISELTYREMRELSYAGFSVFHDEALIPAFRAGIPVQIKNTNNPSAEGTRVVSKRDNTNGPVVGIASDTGFCSIYISKYLMNREIGFGRRALQILEEHGLTYEHVPSGIDDMTIILRQGQMDAATERSVIKRIEEDLHADEVIVEHHLALIMVVGEAMRHNVGTTARAAKALSEAQVNIEMINQGSSEVSMMFGVKEAEERKAVQALYQEFFAGVLIS” here?
Answer: Its value is “not soluble”.

Question: Which “soluble on expression in E. coli” value does the source give for “MGSDKIHHHHHHMKYDVAVYIGRFQPFHNGHLSVVQRSLEVAQHLLILTGSHLASPDTRNPWSSEEREEMIRAALPANWQKRVSFIPIRDHLYSDNLWLTEIQQKVLEEAGEEARIVLVGHRKDRSSYYLDLFPQWDFLEVPRLEAVHSTAIRDAYFSGSEESNYAAALPAGVADYLTAYQQTGRYQWLRDEADYIKGYRQAWAVAPYAPTFVTTDAIVIQSGHVLVVRRKARPGKGLIALPGGYIQQDETVLEGMLRELREETGLKVPKPVLQGSIVENRVFDAPQRSQRGRIITHAFCIHLKPGPLPSVRGGDDAEKAWWMSLADLYAHEDQFFEDHFQIIQHFVSRT” here?
Answer: Its value is “not soluble”.

Question: With “MGSDKIHHHHHHMKYRRIKGTNDIFGEEIWYWRYVEETFRNVCESAGIEEIRTPIFEQTELFVRSVGEESDIVQKEMYTFQDKAGRSITLRPEGTAPVVRAFLENSLIDRGFQQRYYYIGPMFRYEKPQSGRLRQFHQVGFEIIGPESPKADFEVIMLVDTFLRRLGLTKYKIHLNSIGCPVCRKNYREALKEYYGRILDNLCDDCKRRYETNILRLLDCKVDHEYSLNAPKSVDYLCDSCRAHYKKLKEYLNTFEIEYVEDHTLVRGLDYYTRTVFEVRHEGLGAQSAIAGGGRYDGLFAELGGSSVPALGFAGGIERIILALKAEGIEIPMKNVHLVYIATLGEKAFMDGVRLAGELRKKGLSVDVDIMDRKLSGQLKHASRMGSRYAVIIGDEELEKGIVILRDLETGDQVEIDRDFAADYIAERVSKD” as the sequence, how does the “soluble on expression in E. coli” value read?
Answer: Its value is “not soluble”.

Question: For “MGSDKIHHHHHHMLAIEESQKLTLSNLPSLSLFTGTDQGQFEVMKSQMLKQIGYDSADLNFAYFDMKEVVYKDVELELVSLPFFADEKIVILDYFMDITTAKKRFLTDDELKSFEEYLDNPSPTTKLIIFAEGKLDSKRRLVKLLKRDAKAFDAVEVKEQELRQYFQKWSQKQGLQFTNHSFENLLIKSGFQFSEIQKNLLFLQSYKANSVIEEEDIVNAIPKTLQDNIFDLTQFILTKKMDQARDLVRDLTLQGEDEIKLIAVMLGQFRTFTQVKILAESGQTESQIASSLGSYLGRNPNPYQIKFALRDSRGLSLSFLKQAISYLIETDYQIKTGLYEKGFLFEKALLQIASQVN”, which “soluble on expression in E. coli” value is on record?
Answer: Its value is “not soluble”.

Question: With “MGSDKIHHHHHHMLERAVTYKNNGQINIILNGQKQVLTNAEAEAEYQATLQKNEAKHGILKEIEKEMSALVGMEEMKRNIKEIYAWIFVNQKRAEQGLKVGKQALHMMFKGNPGTGKTTVARLIGKLFFEMNVLSKGHLIEAERADLVGEYIGHTAQKTRDLIKKSLGGIWFIDEAYSLARGGEKDFGKEAIDTLVKHMEDKQHEFILILAGYSREMDHFLSLNPGLQSRFPISIDFPDYSVTQLMEIAKRMIDEREYQLSQEAEWKLKDYLMTVKSTTSPIKFSNGRFVRNVIEKSIRAQAMRLLMGDQYLKSDLMTIKSQDLSIKEEASGSA” as the sequence, how does the “soluble on expression in E. coli” value read?
Answer: Its value is “not soluble”.

Question: With “MGSDKIHHHHHHMLESNPPKSLYRETAGGIGDYCALAGAQRARVAIVGGGFTGLSTALHLAEAGDDVAVLEAQQPGWGASGRNGGQVNPGLKYDPDTIEAMFGPELGPRMIDFSYGAPDFTFGLIKRLSIACDARQNGTIRAAIRPKPQAAVRTTAAQCQRRGMPVSMVDAQAMATRTGTGRYIAGMFDARGGDLHPLKYTIGLAAAARNASARIFGGSEVLSLKREAGRWVLKTANGSVSAEKVLVATNGYTGALWPGLEQSLVPVFSAIAATEPLAPAAAAQILPDRPVLYEAGNITVYYRIDAQNRLLMGGRGPMKPIGDASAIRYLTDYALRLWPALAGVRWTHGWNGRVAITKDHLLHIHEPEDGVLICLGYNGRGVAMASAMGAALAQRLQGRETSPFPMPISPLKPIRFHRFWPLGVKAAILSGRLKDRFGL” as the sequence, how does the “soluble on expression in E. coli” value read?
Answer: Its value is “not soluble”.

Question: Which “soluble on expression in E. coli” value does the source give for “MGSDKIHHHHHHMLHPIILAGGVTQTSEWSTGVCHLALETAPGVPSRFEGVLDAMSGDVFADPVVVTTRDNMSLVERQIAARPAALIVEPETHKPAAALLSAVLSLRHMPGALVVVAPATANLADTRNLDKALCNAIPAAQRGEIVMFGQRTTRAYGGFGIMEVVTQPHENAPVAVSRVLASGRKVTLSHLLHGNHQLWGTGLYLARVDVLLAAFKSHASRLFLPVKNALLRAGTVDRTTLLDRATYRRVKAITFEKAVAEKIENICAIQLDPTWSALEEWDQDAAADSAVAQWDEDLAQERAGVLNARAAAPFPHSADMMAVYASLSKISAEDALSAHATEYDWGRLESLAMGPGFTLQRMSIAPGATLDLNAAPGGAEHWIVAQGSVLITIGDHVRLVWEGHSARIPAGRSRRIENPGSGTLVLVQLQVMPLSATGQPQSAASFSPAGVA” here?
Answer: Its value is “not soluble”.

Question: For “MGSDKIHHHHHHMLIKTVLNKFERFKSFIYGDCRLAKVGGSEALVIDIKARRNSKPECPECGKRGKTYDTQPARLFEYVPIWAFKVFFRYAPRRVLCPIHGVKVESLPWGYGKEQMTISYQVYLARWARRLSWKEVAEIFKTSWDSIFRAVQYAVDYGLANRNLDGVTEIGVDEIAVFKGHQYLTMVYQLNAGVRRLLWCGPQRRIRTLLRFFREFGKERSAKLKYVCSDMWAPYLKVIAKRAPNAVNILDRFHIMRKFNEAIDEVRRTEAKEFKAAKQENVLEKGRWLLLKRPENLSEKQTSRLGDLLKLNLSSIKAYLLREDFQQFWDYQRSDFAGKFLDDWVIRTMQTDLEPMKKVARMLRNHKPMILNWFKAKGRLSSGAVEGLNLKAKLTIRKAYGFRTIKCLQVALYHTLGDLPEPLCHHRFC”, which “soluble on expression in E. coli” value is on record?
Answer: The value was “not soluble”.

Question: For “MGSDKIHHHHHHMLIVREFSNRFQQMSGMPINSNETKERLKAAGIDINSKQYRAVMSEMSRDGGGGYTTISAIKKRMSRYDKDGDWINPRTGLAGLLVTDKNCASKNRIVSISESIMDEMFESTKKEFFMENGVHNGDTTNRSEIYQKLYQQTEKNDRLAAGYTLEEYERQYWQAFTDAVKVADPKWEAGKPIMPGVLDRITSKSIDALLVKSGSQLIRKSFERMI”, which “soluble on expression in E. coli” value is on record?
Answer: Its value is “not soluble”.

Question: For “MGSDKIHHHHHHMLIYHYTTVDTFLKILDSKAIWASDLSKMNDPQEFTIGIELIKKFYQKKFPDLLHWFENDRFVGLDNEQLLLGCSFSENPDDLSQWRAYGDDGKGVVIGINRRILSASNTLTIPAFYKKDERTASFVHFHKVIYDKQEFENSVKELLDNIGDFINDTVESFKLSIGLSRLACSFKSDFYKTEQEIRAILEHSKRSDIYLDESLKKHKLFDVKFRLSQFGLVPYCKVNLSNADASSIQTVKLGPKCNISKKDLEFMLLATGNKDILVSTSAGQYR”, which “soluble on expression in E. coli” value is on record?
Answer: Its value is “not soluble”.

Question: For “MGSDKIHHHHHHMLKIYVVDNGGQWTHREWRVLRELGVDTKIVPNDIDSSELDGLDGLVLSGGAPNIDEELDKLGSVGKYIDDHNYPILGICVGAQFIALHFGASVVKAKHPEFGKTKVSVMHSENIFGGLPSEITVWENHNDEIINLPDDFTLAASSATCQVQGFYHKTRPIYATQFHPEVEHTQYGRDIFRNFIGICASYREIQKENFQH”, which “soluble on expression in E. coli” value is on record?
Answer: The value was “soluble”.

Question: For “MGSDKIHHHHHHMLKQLYLTVLRWRPYKHKKVKIVYIMSFPRNDGHLIEQLEQHYHGMIIVLYTKNCQSYAASLNQKGIKTILFDKKTLLITTAISYLKSAPLIFVDNYFPELAILKKKQVVIQLWHANGALKQFGWGAYHTKHRSSKDQIRFQKVYDKMNYFIVNSLKMEAIFRNNYRLENAQFCHFGSPRLAYLEKLEVGETNQNNKVLYAPTYREGMNEMMLVINQAIKAFSAMPNFHFYMKLHPSIQLDAIELPRNVSIWEKHIFESFSEIGYLITDYSSVVFEYMHVKEQPNILFFCPDLEKYALNPGIEPDFFEYLPGPLVENEKQLIVALSNFSINSYKDNITRINEEWNQYQSKETINKIVELVERILGGFCEK”, which “soluble on expression in E. coli” value is on record?
Answer: The value was “not soluble”.
